Laboratory results published in patent US20080003218A1 (Genentech, published 2008).
Like-named read-outs stand apart in the source and are kept apart here.

Key:
[1] = target: IgE bound to FcεRI on human peripheral blood basophils (human, UniProt P01854 1-546; P12319 26-257); assay: cell-based or functional assay
human IgE [2] = target: T1, human IgE (human, UniProt P01854 1-546); assay: equilibrium binding (Scatchard), 125I-IgE
human IgE [3] = target: T1, human IgE; assay: soluble receptor assay, biotin-IgE binding to coated FcεRI α-chain IgG chimera
[4] = target: membrane IgE on U266B1 cells (human, UniProt P01854 1-546); assay: FACS on membrane IgE+ U266B1 cells
Chain of membrane IgE on U266B1 cells (P01854 whole entry, one chain of several): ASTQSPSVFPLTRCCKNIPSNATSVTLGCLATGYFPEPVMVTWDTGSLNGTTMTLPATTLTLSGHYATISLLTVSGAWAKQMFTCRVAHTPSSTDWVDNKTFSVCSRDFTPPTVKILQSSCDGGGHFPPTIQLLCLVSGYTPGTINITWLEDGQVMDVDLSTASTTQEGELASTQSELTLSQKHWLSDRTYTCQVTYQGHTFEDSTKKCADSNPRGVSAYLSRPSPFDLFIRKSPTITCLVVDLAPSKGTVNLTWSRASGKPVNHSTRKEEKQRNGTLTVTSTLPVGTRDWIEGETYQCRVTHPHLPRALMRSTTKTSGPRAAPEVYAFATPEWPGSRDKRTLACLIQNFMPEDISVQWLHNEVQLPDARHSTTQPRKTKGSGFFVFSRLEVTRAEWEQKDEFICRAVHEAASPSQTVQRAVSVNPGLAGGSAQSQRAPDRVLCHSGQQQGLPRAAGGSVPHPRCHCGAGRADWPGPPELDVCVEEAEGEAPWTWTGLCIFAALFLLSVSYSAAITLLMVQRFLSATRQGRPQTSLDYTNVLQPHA

human IgE [5] = target: T1, human IgE; assay: soluble receptor assay, biotin-IgE binding to coated FcεRI α-chain IgG chimera; remark: listed apart in the source

T1 sequence (P01854 whole entry): as the sequence (P01854 whole entry, one chain of several) above
Chain of IgE bound to FcεRI on human peripheral blood basophils (P01854 whole entry, chain 1 of 2): as the sequence (P01854 whole entry, one chain of several) above
Chain of IgE bound to FcεRI on human peripheral blood basophils (P12319 26-257, chain 2 of 2): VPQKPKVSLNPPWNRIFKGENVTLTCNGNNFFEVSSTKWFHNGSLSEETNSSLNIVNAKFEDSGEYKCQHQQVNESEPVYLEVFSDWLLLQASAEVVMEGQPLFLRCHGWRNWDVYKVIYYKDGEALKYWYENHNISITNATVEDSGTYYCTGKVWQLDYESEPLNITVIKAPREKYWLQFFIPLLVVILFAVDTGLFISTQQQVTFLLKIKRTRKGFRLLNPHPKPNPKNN

B1: murine anti-human IgE monoclonal antibody MaE11 (antibody, V domains shown)
VH: DVQLQESGPGLVKPSQSLSLACSVTGYSITSGYSWNWIRQFPGNKLEWMGSITYDGSSNYNPSLKNRISVTRDTSQNQFFLKLNSATAEDTATYYCARGSHYFGHWHFAVWGAGTTVTVSS
VL: DIQLTQSPASLAVSLGQRATISCKASQSVDYDGDSYMNWYQQKPGQPPILLIYAASYLGSEIPARFSGSGSGTDFTLNIHPVEEEDAATFYCQQSHEDPYTFGAGTKLEIK
notes: Murine IgG1; immunogen U266 IgE; also called murine mAb MaE11
[1]
  PBL histamine release (EC50): > 100 µg/mL
Human IgE [2]
  Kd: 30 nM
Human IgE [3]
  IC50: 0.449 µg/mL
  ratio Variant X/IgG1-2: 0.06 ratio
  ratio Variant X/MaE11: 1 ratio
[4]
  EC50: 0.15 µg/mL
Human IgE [5]
  IC50: 0.179 µg/mL
  ratio F(ab)-X/F(ab)-2: 0.03 ratio
  ratio F(ab)-X/MaE11: 1 ratio
